In assay [1] the target is human CD47 (human) (UniProt Q08722). Description: cell-based or functional assay.
The target is the same in assay [2]. Description: affinity for human CD47; method not stated.
For assay [3] the target is unchanged. Description: in vitro receptor occupancy assay, at ~1 µM.

Broadly, the Kd is the equilibrium constant for the complex coming apart. The low end stands for higher affinity, the high end for lower affinity. Turning to “TTI-621 (from UniProt P78324 31-149) (Fc fusion)”, in the assay with human CD47 (human) [1], the EC50, PathHunter SIRPα Signaling Bioassay was > 0.15 µg/mL and the inhibition of SIRPα signaling at 1 nM is < 10%. In the assay with human CD47 (human) [2], the Kd turned out to be 500 nM. In the assay with human CD47 (human) [3], the receptor occupancy is 40%.
“TTI-622 (from UniProt P78324 31-149) (Fc fusion)”: in the assay with human CD47 (human) [1], the EC50, PathHunter SIRPα Signaling Bioassay is > 0.15 µg/mL and the inhibition of SIRPα signaling at 1 nM is < 10%. In the assay with human CD47 (human) [2], this substance registered a Kd of 500 nM. Further, in the assay with human CD47 (human) [3], the receptor occupancy was found to be 40%.

(Values after US20210154269A1.)
